Results on two substances are retold here after patent publication US20050107601A1.

The target in test [1] is erbB receptors on primary chick myotube cultures. The experiment in a line: cell-based or functional assay.
Test [2] shares this target. The experiment in a line: radioligand binding: 0.1 nM 125I-IG-EGF on chick myotubes, 2 hrs on ice, with or without 1 µM cold IG-EGF; cpm bound.

Substance “Recombinant human NRG isolated EGF-like domain construct (amino acids 177-246 of the human β1 form) (from UniProt Q02297 177-246) (ligand)” gave a duration of p185 phosphorylation after the ligand is washed out (1 nM, 45 min treatment), chick myotubes in test [1] of under 1 h.

The substance “Recombinant human NRG IG-EGF domain construct (amino acids 14-246 of the human β1 form) (from UniProt Q02297 14-246) (ligand)” gave a specific binding as percent of total binding in test [2] of 25%. In addition, in test [1], the duration of p185 phosphorylation after the ligand is washed out (1 nM, 45 min treatment), chick myotubes was determined as 8 h and the erbB receptor (p185) tyrosine phosphorylation on chick myotubes, 45 min, anti-phosphotyrosine western blot; potency relative to the EGF form was 4 fold.
